The chains are these.
T1: human ALPL on CHO cells (human, UniProt P05186 18-501)
T1 construct: whole, on cells; also called CHO-ALPL
T1 sequence (looked up): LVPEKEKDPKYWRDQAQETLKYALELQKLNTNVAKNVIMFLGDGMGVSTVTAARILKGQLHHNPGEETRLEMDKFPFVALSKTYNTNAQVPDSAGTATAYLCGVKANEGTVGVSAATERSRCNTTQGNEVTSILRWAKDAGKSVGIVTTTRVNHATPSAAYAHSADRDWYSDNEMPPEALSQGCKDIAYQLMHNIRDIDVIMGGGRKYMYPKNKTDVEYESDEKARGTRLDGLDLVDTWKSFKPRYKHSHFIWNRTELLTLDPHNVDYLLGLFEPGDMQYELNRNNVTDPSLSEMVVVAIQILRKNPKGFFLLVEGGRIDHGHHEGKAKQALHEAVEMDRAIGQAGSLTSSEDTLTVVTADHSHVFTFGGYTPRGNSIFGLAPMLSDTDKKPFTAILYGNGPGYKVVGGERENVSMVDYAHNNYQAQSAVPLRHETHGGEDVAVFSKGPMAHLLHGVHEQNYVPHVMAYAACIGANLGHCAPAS

T2: ALPI His homodimer (human, UniProt P09923 20-503)
T2 construct: Whole entry with His tag; used in ELISA and BLI; also called hALPI
T2 sequence: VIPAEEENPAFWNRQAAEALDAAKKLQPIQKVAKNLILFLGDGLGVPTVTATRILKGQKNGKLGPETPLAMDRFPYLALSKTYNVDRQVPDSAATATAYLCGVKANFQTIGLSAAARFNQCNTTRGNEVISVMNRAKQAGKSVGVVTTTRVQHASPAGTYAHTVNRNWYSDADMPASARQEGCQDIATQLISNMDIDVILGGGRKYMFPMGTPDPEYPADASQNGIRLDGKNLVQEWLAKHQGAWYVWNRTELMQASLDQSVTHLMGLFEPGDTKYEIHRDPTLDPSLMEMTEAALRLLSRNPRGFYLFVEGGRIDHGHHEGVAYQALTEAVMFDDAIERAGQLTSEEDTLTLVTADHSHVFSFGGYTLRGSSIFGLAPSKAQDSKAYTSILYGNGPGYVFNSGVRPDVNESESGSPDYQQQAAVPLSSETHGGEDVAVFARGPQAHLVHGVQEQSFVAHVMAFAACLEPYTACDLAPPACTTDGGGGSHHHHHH

T3: Human ALPP (leucine zipper) (human)
T3 construct: Whole entry: ALPP fused with a cysteine stabilised leucine zipper and His tag; also called hALPP
T3 chain: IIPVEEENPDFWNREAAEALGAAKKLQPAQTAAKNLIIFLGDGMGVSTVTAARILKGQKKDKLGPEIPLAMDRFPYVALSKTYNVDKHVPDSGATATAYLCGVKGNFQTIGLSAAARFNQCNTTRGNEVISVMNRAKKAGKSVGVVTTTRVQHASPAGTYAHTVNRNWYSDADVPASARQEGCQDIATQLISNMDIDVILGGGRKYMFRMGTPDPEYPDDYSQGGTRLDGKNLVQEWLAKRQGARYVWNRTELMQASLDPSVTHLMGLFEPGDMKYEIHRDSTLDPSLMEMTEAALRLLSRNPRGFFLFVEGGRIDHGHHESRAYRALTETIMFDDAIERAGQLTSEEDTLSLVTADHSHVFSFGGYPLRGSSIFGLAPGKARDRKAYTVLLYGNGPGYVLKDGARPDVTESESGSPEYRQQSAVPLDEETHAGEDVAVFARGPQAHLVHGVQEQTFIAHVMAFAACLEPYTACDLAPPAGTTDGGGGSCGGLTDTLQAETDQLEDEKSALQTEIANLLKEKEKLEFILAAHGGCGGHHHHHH

T4: Human ALPL (leucine zipper) (human)
T4 construct: Whole entry: fused with a cysteine stabilised leucine zipper and His tag; also called hALPL
T4 chain: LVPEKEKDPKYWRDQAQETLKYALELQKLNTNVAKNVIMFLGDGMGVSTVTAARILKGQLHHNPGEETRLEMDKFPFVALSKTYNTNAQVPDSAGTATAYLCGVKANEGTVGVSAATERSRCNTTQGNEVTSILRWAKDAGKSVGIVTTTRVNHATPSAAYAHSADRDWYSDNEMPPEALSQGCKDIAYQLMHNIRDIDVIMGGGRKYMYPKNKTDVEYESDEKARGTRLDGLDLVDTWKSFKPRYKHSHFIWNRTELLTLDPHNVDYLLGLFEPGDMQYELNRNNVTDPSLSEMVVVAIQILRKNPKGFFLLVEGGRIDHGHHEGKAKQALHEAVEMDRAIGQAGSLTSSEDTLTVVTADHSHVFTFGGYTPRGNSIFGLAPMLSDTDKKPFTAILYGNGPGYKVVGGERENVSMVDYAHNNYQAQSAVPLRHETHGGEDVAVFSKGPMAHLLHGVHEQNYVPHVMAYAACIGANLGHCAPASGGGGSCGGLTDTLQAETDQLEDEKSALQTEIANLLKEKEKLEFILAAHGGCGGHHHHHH

B1: A06-E06 hFc-vcPAB-MMAE [G4S]3 (Fc fusion, DAR 4)
chain 1: QVHLVESGGGLVQAGGSLRLSCAASGRTFLSMGWFRQAPGKEREFVAAISWTGGSTGYADSVKGRFTISRESDKETMYLQMNSLKPEDTAVYYCAARGDVYYGGDDATRYKYWGQGTQVTVSSGGGGSGGGGSGGGGSEPKSSDKTHTCPPCPAPELLGGPCVFLFPPKPKDTLMISRTPEVTCVVVDVSHEDPEVKFNWYVDGVEVHNAKTKPREEQYNSTYRVVSVLTVLHQDWLNGKEYKCKVSNKALPAPIEKTISKAKGQPREPQVYTLPPSRDELTKNQVSLYCLVKGFYPSDIAVEWESNGQPENNYKTTPPVLDSDGSFFLYSKLTVDKSRWQQGNVFSCSVMHEALHNHYTQKSLCLSPGK
chain 2: QVHLVESGGGLVQAGGSLRLSCAASRRSFSEYAMGWFRQAPGKEREFVAAIGWSGVIEYADSVKGRFTISRDNAKDTVYLQMNSLKPEDTAVYYCAAGLGIRVVSQTPAYWGQGTQVTVSSGGGGSGGGGSGGGGSEPKSSDKTHTCPPCPAPELLGGPCVFLFPPKPKDTLMISRTPEVTCVVVDVSHEDPEVKFNWYVDGVEVHNAKTKPREEQYNSTYRVVSVLTVLHQDWLNGKEYKCKVSNKALPAPIEKTISKAKGQPREPQVYTLPPSRDELTKNQVSLTCLVKGFYPSDIAVEWESNGQPENNYKTTPPVLDSDGSFFLTSKLTVDKSRWQQGNVFSCSVMHEALHNHYTQKSLCLSPGK
modifications: MC-vc-PAB-MMAE on Cys 239 and Cys 442 (EU numbering)
notes: Biparatopic drug conjugate, DAR 4; also called #639
B2: A06-E10 hFc-vcPAB-MMAE [G4S]3 (Fc fusion, DAR 4)
chain 1: B1 chain 1
chain 2: QVQLVESGGGLVQAGGSLRLSCAVSGRALSDYNIGWFRQAPGKEREFVARKTWDGSSTRYDDSVKGRFTVSIEDAKNTAYLQMSSLKTEDTAVYYCAAGRYSRARGWEYDYWGQGTQVTVSSGGGGSGGGGSGGGGSEPKSSDKTHTCPPCPAPELLGGPCVFLFPPKPKDTLMISRTPEVTCVVVDVSHEDPEVKFNWYVDGVEVHNAKTKPREEQYNSTYRVVSVLTVLHQDWLNGKEYKCKVSNKALPAPIEKTISKAKGQPREPQVYTLPPSRDELTKNQVSLTCLVKGFYPSDIAVEWESNGQPENNYKTTPPVLDSDGSFFLTSKLTVDKSRWQQGNVFSCSVMHEALHNHYTQKSLCLSPGK
modifications: MC-vc-PAB-MMAE on Cys 239 and Cys 442 (EU numbering)
notes: Biparatopic drug conjugate, DAR 4
B3: A06-F05 hFc-vcPAB-MMAE [G4S]3 (Fc fusion, DAR 4)
chain 1: B1 chain 1
chain 2: B2 chain 2 with V24A, L29F, S30G, K51R, E73D, D74N, S84N, A104V
modifications: MC-vc-PAB-MMAE on Cys 239 and Cys 442 (EU numbering)
notes: as for B2
B4: C05 (VHH, not shown: small tags and cut ends)
VHH: QVQLVESGGGLVQAGGSLRLSCAASRRSFSEYAMGWFRQAPGKEREFVAAIGWSGVIEYADSVKGRFTISRDNAKDTVYLQMNSLKPEDTAVYYCAAGLGIRVVSQTPAYWGQGTQVTVSS
B5: A08 (VHH, not shown: small tags and cut ends)
VHH: QVQLVESGGGLVQAGESLRLACAASGTIFSGNAVGWYRQAPEKQREWVSSITDYGDTDYAEAVKGRFTISRDNAKNTVYLQMNSLKPEDTAVYYCYVYQRGESEEYWGQGTKVTVSS
B6: C06 (VHH, not shown: small tags and cut ends)
VHH: QVQLVESGGGLVQPGGSLRVSCAASGPSLSNYAMGWFRQAPGKEREFVAGISWGGGRTSYTDSVKGRFTISRDNAKNTVYLQMNNLKPEDTGVYYCAGRYGRGRNVEYEYDYWGQGTQVTVSS
B7: B11 (VHH, not shown: small tags and cut ends)
VHH: B6 VHH with Q3H, L11S, P14A, V20L
B8: D11 (VHH, not shown: small tags and cut ends)
VHH: B6 VHH with L11S, P14A, V20L, Q118M
B9: D08 (VHH, not shown: small tags and cut ends)
VHH: B6 VHH with Q3H, L11S, P14A, V20L, Q118K

Where a chain is given by its changes, count along the chain named. Numbers in names are those of the source. A value given as a limit tells only on which side of the number the result lay.

The first experiment addresses T1, human ALPL on CHO cells. Briefly: flow cytometry, CHO cells stably expressing human ALPL; PDC detected with FITC anti-human Ab. The protocol: Biparatopic VHH-hFc drug conjugates were assessed for human ALPP, ALPPL2, ALPI and ALPL cell-surface binding by flow cytometry. Binders were screened on CHO cells stably expressing human ALPP, ALPPL2, ALPI or ALPL.
Cell surface binding of test agents to hALPP isoforms was characterized in four CHO-ALPP isoform transfectant cell lines (CHO-ALPP, CHO-ALPPL2, CHO-ALPI and CHO-ALPL) and the resulting KDapp values determined. Adherent cells were detached from tissue culture flasks by incubating with 0.1% EDTA/PBS solution at 37° C. for […] or until cells detached easily. Cells were re-suspended in ice-cold PBS/2% FCS in 15 ml tubes and centrifuged at 1700 rpm for 5 mins at 4° C. Supernatant was removed and the cell pellet re-suspended in PBS/2% FCS. […] Cells were incubated with 100 μl of test agents at a range of concentrations, plus controls for 1 hr on ice. The sample plate was centrifuged at 1700 rpm for 5 mins at 4° C. The supernatant was removed, and a wash performed by re-suspending the cell pellets in 0.25 mL of ice-cold PBS/2% FCS using a multichannel pipette. Samples were again centrifuged at 1700 rpm for 5 min at 4° C. Supernatant was removed and two further washes performed as described. After the final wash and centrifugation step, excess liquid was removed by blotting the plate on tissue paper. Binding of VHH-hFc agents was determined by adding 100 μl of Fitc-anti-human Ab (ThermoFisher) and incubating for 30 mins on ice in the dark. Wash steps were performed as described previously. All cell pellets were finally re-suspended in 0.28 ml of ice-cold PBS/2% FCS and left on ice in the dark prior to analysis on a Merck-Millipore Guava EasyCyte HT or Thermo Fisher Attune N×T flow cytometer.
In general terms: Flow cytometry measures light scatter and fluorescence of single cells or particles in a stream.
Consider B1, for which the binding result was “no binding (tested: 350 nM)”.

Take B2: the binding result is recorded as “no binding (tested: 350 nM)”.

Take B3: the binding result was “no binding (tested: 350 nM)”.

Another experiment concerns the target T2, ALPI His homodimer. Briefly: ELISA, antigen coated. The source says:
ELISA was used to test the binding and specificity of the VHHs. […] Anti-Llama—HRP antibody was used for detection.
For orientation: In an ELISA, binding on a coated surface is turned into a signal by an enzyme label.
Take B4: the binding result is “no binding (tested: 500 ng VHH)”.

For B5, the binding result is recorded as “no binding (tested: 500 ng VHH)”.

As for B6, the binding result is listed as “no binding (tested: 500 ng VHH)”.

With B7, the binding result is “no binding (tested: 500 ng VHH)”.

As for B8, the binding result is “no binding (tested: 500 ng VHH)”.

Take B9: the binding result is “no binding (tested: 500 ng VHH)”.

For a further experiment, the target named is T3, Human ALPP (leucine zipper). In words: BLI, antigen immobilised. The protocol: (§1) Binding kinetics were determined using the Biolayer Interferometry (BLI) Octet K2 system (Sartorius). […] All assays were conducted in PBS with a plate temperature of 25° C. Ka (M⁻¹s⁻¹), Kd (s⁻¹) and KD (nM) values were determined using Octet Data Analysis High Throughput software (ForteBio) for Biolayer Interferometry.
One may read the Kd as a measure of binding affinity in units of concentration. A lower Kd goes with tighter binding. The term koff denotes the rate constant with which the complex falls apart. Lower therefore signals slow dissociation. By kon is commonly meant the rate constant with which the complex forms. A low value points to slow association. As to B4, the Kd is less than 0.01 nM, the off-rate constant (koff) was less than 1e-07 s⁻¹ and the kon was found to be 394000 M⁻¹ s⁻¹.

B5 had a dissociation constant Kd of 0.03 nM, an off-rate constant (koff) of 1.2e-05 s⁻¹ and an association rate constant (kon) of 429000 M⁻¹ s⁻¹.

B6 displayed an equilibrium dissociation constant (Kd) of less than 0.01 nM, a dissociation rate constant (koff) of less than 1e-07 s⁻¹ and a kon of 368000 M⁻¹ s⁻¹.

For the molecule B7, the on-rate (kon) turned out to be 213000 M⁻¹ s⁻¹.

Molecule B8 displayed a dissociation constant Kd of less than 0.01 nM, an off-rate (koff) of less than 1e-07 s⁻¹ and an on-rate (kon) of 97700 M⁻¹ s⁻¹.

Regarding B9, the Kd was less than 0.01 nM, the koff is less than 1e-07 s⁻¹ and the on-rate constant (kon) turned out to be 175000 M⁻¹ s⁻¹.

A further experiment concerns the target T4, Human ALPL (leucine zipper). In words: BLI, antigen immobilised. The protocol:
as §1
In general terms: BLI is a label-free optical method that tracks binding on a fibre tip over time.
B4: the binding result is recorded as “no binding”.

On to B5, for which the binding result is listed as “no binding”.

B6: the binding result is on record as “no binding”.

In the case of B7, the binding result was “no binding”.

Consider B8, for which the binding result was “no binding”.

B9: the binding result was “no binding”.

Source of the values: patent publication US20260216242A1 (ALMAC DISCOVERY, published 2026).
